Columns and labels:
Test in all cases: ELISA of pooled CsCl fractions 9-15 of the purified particle
[1] = molecular target: purified HBs antigen particle produced from an HBV sequence construct including the pre-S1 region with total deletion of pre-S2 and deletions upstream of the pre-S2 ATG and the S region with deletion of the S ATG (e.g., the construct of FIG. 6B) (Hepatitis B virus (subtype not stated for the construct); Hepatitis B virus (subtype not stated))
[2] = molecular target: purified HBs antigen particle produced from an HBV sequence construct including the pre-S1 region with total deletion of pre-S2 and deletions upstream of the pre-S2 ATG and the S region with deletion of the S ATG and downstream the S ATG through the XBaI site (e.g. the construct of FIG. 1A) (Hepatitis B virus (subtype not stated for the construct); Hepatitis B virus (subtype not stated))
[3] = molecular target: purified HBs antigen particle produced from an HBV sequence construct including the pre-S2 region with none of the pre-S1 region and deletions upstream of the S ATG and downstream of the S ATG through the XBaI site, and the S region with deletion of the S ATG (e.g. the construct of FIG. 2A) (Hepatitis B virus (subtype not stated for the construct); Hepatitis B virus (subtype not stated))
[4] = molecular target: purified HBs antigen particle produced from an HBV sequence construct including the pre-S2 region with none of the pre-S1 region and deletions upstream of the S ATG and the S region with deletion of the S ATG (e.g., the construct of FIG. 7B) (Hepatitis B virus (subtype not stated for the construct); Hepatitis B virus (subtype not stated))
[5] = molecular target: purified HBs antigen particles produced by construct including the entire pre-S1-pre-S2-S region under control of the LTR region of rous sarcoma virus, with additional cotransfection with S (FIG. 13) (Hepatitis B virus (subtype not stated))

## anti-pre-S1 monoclonal antibody MA 18/7
[1]
  E492: 1.27
[2]
  E492: 0.839
[3]
  E492: 0
[4]
  E492: 0
[5]
  E492: 0.125

Source: patent publication US6117653
